Measured values from publication PMC3076238, “Improved mycobacterial protein production using a Mycobacterium smegmatis groEL1ΔC expression strain” (BMC Biotechnology, 2011).

Biological target: AccA3, α-subunit of the acyl-CoA carboxylase AccD5-AccA3 complex (Rv3285) (M. tuberculosis, UniProt P96890 1-600)
Test: SEC; […]; 25 mM Tris-HCl pH 8.0, 150 mM NaCl, 1 mM DTT
Settings: both partners purified

Sequence of AccA3, α-subunit of the acyl-CoA carboxylase AccD5-AccA3 complex (Rv3285) (P96890 whole entry, one chain of several): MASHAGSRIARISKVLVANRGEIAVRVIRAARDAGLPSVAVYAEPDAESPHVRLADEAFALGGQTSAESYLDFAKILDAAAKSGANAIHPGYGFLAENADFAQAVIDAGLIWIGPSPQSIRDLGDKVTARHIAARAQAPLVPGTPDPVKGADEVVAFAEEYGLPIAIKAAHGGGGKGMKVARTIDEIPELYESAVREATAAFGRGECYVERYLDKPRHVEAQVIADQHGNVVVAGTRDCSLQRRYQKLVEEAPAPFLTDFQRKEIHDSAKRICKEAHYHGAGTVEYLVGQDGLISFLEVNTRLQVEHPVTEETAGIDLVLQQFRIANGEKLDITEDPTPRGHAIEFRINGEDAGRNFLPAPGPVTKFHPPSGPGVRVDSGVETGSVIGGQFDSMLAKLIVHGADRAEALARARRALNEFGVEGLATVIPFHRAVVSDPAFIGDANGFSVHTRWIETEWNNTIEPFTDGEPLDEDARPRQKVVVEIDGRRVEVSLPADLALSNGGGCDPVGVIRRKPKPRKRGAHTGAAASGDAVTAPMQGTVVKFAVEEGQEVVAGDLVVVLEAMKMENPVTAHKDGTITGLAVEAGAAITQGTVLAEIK

B1: AccD5, β-subunit of the acyl-CoA carboxylase AccD5-AccA3 complex (Rv3280), his-tagged (enzyme)
chain: MTSVTDRSAHSAERSTEHTIDIHTTAGKLAELHKRREESLHPVGEDAVEKVHAKGKLTARERIYALLDEDSFVELDALAKHRSTNFNLGEKRPLGDGVVTGYGTIDGRDVCIFSQDATVFGGSLGEVYGEKIVKVQELAIKTGRPLIGINDGAGARIQEGVVSLGLYSRIFRNNILASGVIPQISLIMGAAAGGHVYSPALTDFVIMVDQTSQMFITGPDVIKTVTGEEVTMEELGGAHTHMAKSGTAHYAASGEQDAFDYVRELLSYLPPNNSTDAPRYQAAAPTGPIEENLTDEDLELDTLIPDSPNQPYDMHEVITRLLDDEFLEIQAGYAQNIVVGFGRIDGRPVGIVANQPTHFAGCLDINASEKAARFVRTCDCFNIPIVMLVDVPGFLPGTDQEYNGIIRRGAKLLYAYGEATVPKITVITRKAYGGAYCVMGSKDMGCDVNLAWPTAQIAVMGASGAVGFVYRQQLAEAAANGEDIDKLRLRLQQEYEDTLVNPYVAAERGYVDAVIPPSHTRGYIGTALRLLERKIAQLPPKKHGNVPL
- binding result: binds
